Two molecules from patent publication US20200405813A1 (SUTRO BIOPHARMA, published 2020) can be followed below.

For test [1], the target named is FolR1 (folate receptor alpha) on FolR1-positive KB or Igrov1 cells (UniProt P15328 25-234, limits assumed). Briefly: cell-based or functional assay.
The target in test [2] is Muc16 on Muc16-positive OVCAR3 cells (UniProt Q8WXI7 1-14507, limits assumed). Briefly: cell-based or functional assay.

FolR1 (folate receptor alpha) on FolR1-positive KB or Igrov1 cells, sequence (P15328 25-234 limits assumed): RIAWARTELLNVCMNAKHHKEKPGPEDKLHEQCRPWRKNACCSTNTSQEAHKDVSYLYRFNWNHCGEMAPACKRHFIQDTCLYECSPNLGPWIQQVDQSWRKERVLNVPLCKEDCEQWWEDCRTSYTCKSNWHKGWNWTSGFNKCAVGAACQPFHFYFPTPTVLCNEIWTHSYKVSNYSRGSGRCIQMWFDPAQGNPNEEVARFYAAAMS

B1: Conjugate 1: anti-FolR1-Compd 101 ADC (FolRα antibody 1848-B10 ADC, DAR 4) (antibody, human IgG1, kappa, V domains shown)
VH: EVQLVESGGGLVQPGGSLRLSCAASGFNTTTKSIHWVRQAPGKGLEWVGEIYPRDGITDYADSVKGRFTISADTSKNTAYLQMNSLRAEDTAVYYCARGGWHWRSGYSYYLDYWGQGTLVTVSS
VL: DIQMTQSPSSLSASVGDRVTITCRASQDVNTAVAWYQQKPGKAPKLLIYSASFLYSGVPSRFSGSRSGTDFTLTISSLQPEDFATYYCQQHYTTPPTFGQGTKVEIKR
modifications: pAMF (para-azidomethyl-L-phenylalanine) at Y180 and F404 conjugated to Compound 101 (by Table 16; Tables 8 and 10 say Y180 and K42 sites)
Take B1: in test [1], the “Cell Killing on FolR1+ Igrov1 Cells, EC50” value stood at 0.03 nM.

B2: Conjugate 49: anti-MUC16 sofituzumab+ Compd 401/Compd 101 (sofituzumab HC:4x pAMF iADC, 70% TLR agonist, DAR 3.9) (antibody, human IgG1, kappa, V domains shown)
VH: EVQLVESGGGLVQPGGSLRLSCAASGYSITNDYAWNWVRQAPGKGLEWVGYISYSGYTTYNPSLKSRFTISRDTSKNTLYLQMNSLRAEDTAVYYCARWTSGLDYWGQGTLVTVSS
VL: DIQMTQSPSSLSASVGDRVTITCKASDLIHNWLAWYQQKPGKAPKLLIYGATSLETGVPSRFSGSGSGTDFTLTISSLQPEDFATYYCQQYWTTPFTFGQGTKVEIKR
modifications: pAMF at Y180 and F404 conjugated to a mixture of Compound 401 and Compound 101
Consider B2, for which, in test [2], the “Cell Killing on OVCAR3 (Muc16+), EC50” value was determined as 0.1.
